Experimental findings from paper PMC10767048 (Nature Communications, 2024) are described below.

Bounds are passed on as bounds.

The target in this assay is GPC trimer Enc nanoparticle (Lassa GPC trimer-SpyTag coupled to encapsulin-SpyCatcher) (Lassa virus, Mouse/Sierra …, stabilised). As to the kind of experiment: BLI. The settings on record: both partners purified.

B1: Fab of human LASV neutralizing antibody 37.7H (Fab, V domains shown)
VH: EVQLVQSGGGLVKAGGSLRLSCAASGFTFSTYSMNWIRQAPGKGLEWVASISSRSGSHINYVDSVKGRFTISRDNARDLLYLQMNSLRVDDSALYYCARDRRSGTSPLPLDVWGQGTTVTVFS
VL: QSALTQPASVSGSPGQSITISCTGTGSDIGGYNFVSWYQQYPGKAPKLIIYEVRIRASGVSNRFSGSKSGNTASLTISGLQAEDEADYYCNSYSIHSPWVFGGGTKLTVL
As for B1, the Kd (in general, the equilibrium constant for the complex coming apart) is less than 1 pM; the koff (as a rule, the first-order rate constant of dissociation) is less than 1e-07 s⁻¹; the kon (usually the rate constant with which the complex forms) is 81100 M⁻¹ s⁻¹.
